# Data published in patent US10202593B2, “Evolved sortases and uses thereof” (President and Fellows of Harvard College, priority 2013, dated 2019).
# Numbering of substitutions follows the chain as printed. Names may count otherwise. Like-named read-outs stand apart in the source and are kept apart here.
# B1: eSrtA(4S-5): 5mut + N98D A104V A118T F122A K134R I182V (protein)
# chain: QAKPQIPKDKSKVAGYIEIPDADIKEPVYPGPATREQLDRGVSFVEENESLDDQNISITGHTAIDRPNYQFTNLRAAKKGSMVYFKVGNETRKYKMTSIRNVKPTAVEVLDEQKGKDKQLTLVTCDDYNEETGVWETRKIFVATEVK
# B2: eSrtA(4S-4): 5mut + A104V A118T F122S I182V (protein)
# chain: B1 chain with D39N, A63S, R75K
# B3: eSrtA(2A-6): round 6 consensus variant targeting LAETG; kinetics close to 2A.6A (protein)
# chain: B1 chain with D39N, V45H, T59A, A63F, R75K, K79V, K103R
# B4: eSrtA(4S-3): round 3 LPESG clone: eSrtA + N98S A104T A118T F122S D124G K134R K173E K177E I182V (protein)
# chain: B1 chain with D39S, V45T, A63S, D65G, K114E, K118E
# B5: 4S.6C: 5mut + N98D A104V A118T F122A K134R I182V E189F (protein)
# chain: B1 chain with E130F
# B6: 2A.6A: 5mut + A104H K138V K162R I182V (protein)
# chain: B1 chain with D39N, V45H, T59A, A63F, R75K, K79V, K103R
# B7: eSrtA(4S-6): round 6 consensus variant targeting LPESG (protein)
# chain: B1 chain with T59S, R75G, E130V
# B8: eSrtA(4S-3.5) (protein)
# chain: B1 chain with D39N, V45T, A63F, R75K
# B9: 4S.6B: 5mut + N98D A104V A118S F122A K134P I182V E189P (protein)
# chain: B1 chain with T59S, R75P, E130P
# Experiments:
# Format in all cases: biochemical
# [1] = system: LPETG (Abz-LPETGK(Dnp)-CONH2); assay: In vitro sortase kinetics HPLC assay, LPETG substrate; details: substrate wt (LPETG)
# Protocol: (§1) See below for details on sortase expression and purification, and on the synthesis of Abz-LPETGK(Dnp)-CONH2 (SEQ ID NO: 19). […] Reactions were initiated with the addition of enzyme and incubated at 22.5° C. for 3 to 20 minutes before quenching with 0.5 volumes of 1 M HCl. Five to ten nmol of peptide from the quenched reactions were injected onto an analytical reverse-phase Eclipse XDB-C18 HPLC column (4.6×150 mm, 5 μm, Agilent Technologies) and chromatographed using a gradient of 10 to 65% acetonitrile with 0.1% TFA in 0.1% aqueous TFA over 13 minutes. Retention times under these conditions for the Abz-LPETGK(Dnp)-CONH2 (SEQ ID NO: 19) substrate, the released GKDnp peptide, and the Abz-LPETGGG-COOH (SEQ ID NO: 20) product were 12.8, 10.4, and 9.1 min, respectively. To calculate the percent conversion, the ratio of the integrated areas of the Abz-LPETGGG-COOH (SEQ ID NO: 20) and Abz-LPETGK(Dnp)-CONH2 (SEQ ID NO: 19) peptide Abs220 peaks was compared to a standard curve generated by mixing the product and starting peptide in known ratios. To determine […] and Km, reaction rates were fit to the Michaelis-Menten equation using OriginPro 7.0 software. All kinetics values reported represent the average of at least three measurements. Percent conversion was also calculated by using the ratio of the integrated areas of the GK(Dnp)-CONH2 and Abz-LPETGK(Dnp)-CONH2 peptide Abs355 peaks were compared directly (Example 5). To determine kcat and Km, LPETG, reaction rates were fit to the Michaelis-Menten equation using Microsoft Excel using the Solver add-in. To determine Km,GGG and KH, reaction rates were fit to the modified Michaelis-Menten, for which KH is as defined when KH<<Km,GGG.
# (§2) Assays to determine eSrtA, eSrtA(2A-9) and eSrtA(4S-9) specificity were performed by preparing 10 μM stocks of Abz-LXEXGK(Dnp) (SEQ ID NO: 75) peptides in 300 mM Tris pH 7.5, 150 mM NaCl, 5 mM CaCl2, 5% v/v DMSO, and 100 mM Gly-Gly-Gly-COOH (GGG). Reactions were performed by adding eSrtA(2A-9) to a final concentration of 450 nM, eSrtA(4S-9) to a final concentration of 115 nM or eSrtA to a final concentration of 47.5 nM and a final volume of 100 μL, then incubating at 22.5° C. for 15 minutes. Reactions were quenched by the addition of 0.2 volumes of 5 M HCl, then were injected onto an analytical reverse-phase Eclipse XDB-C18 HPLC column (4.6×150 mm, 5 μm, Agilent Technologies) and chromatographed using a gradient of 10 to 65% acetonitrile with 0.1% TFA in 0.1% aqueous TFA over 13 minutes. Retention times under these conditions for the Abz-LPETGK(Dnp)-CONH2 (SEQ ID NO: 19) substrate, the released GKDnp peptide, and the Abz-LPETGGG-COOH (SEQ ID NO: 20) product were 12.8, 10.4, and 9.1 min, respectively, while the remaining Abz-LXEXGK(Dnp)-CONH2 (SEQ ID NO: 74) substrates varied in retention time between 9 and 13 minutes. To calculate the percent conversion, the ratio of the integrated areas of the GK(Dnp)-CONH2 and Abz-LPETGK(Dnp)-CONH2 (SEQ ID NO: 19) peptide Abs355 peaks were compared directly. Subsequent determination of kcat/Km and KH were performed as described for in vitro SrtA characterization.
# (§3) In each case, rate constants were determined by measuring enzyme velocity at eight different substrate concentrations by HPLC assay, then fit using nonlinear regression to the Michaelis-Menten equation, yielding kcat and Km. KH was calculated by measuring enzyme velocity at 1 mM target substrate and eight different GGG concentrations by HPLC assay, then fitting the resulting curves using nonlinear regression to the modified Michaelis-Menten equation.
# [2] = system: LPESG (Abz-LPESGK(Dnp)-CONH2); assay: In vitro sortase kinetics HPLC assay, LPESG substrate; details: for KH (KH,LPESG): LPESG substrate; for Specificity / preference for LPESG over LPETG: ratio of kcat/KM; for Specificity: 4S (LPESG) over wt (LPETG); for specificity (relative cat. Efficiency, fold): ratio of kcat/Km between 4S (LPESG) and wt (LPETG) substrates; for kHydrolysis (Hz): 1 mM
# Protocol: as §1, §2, §3
# [3] = system: LAETG (Abz-LAETGK(Dnp)-CONH2); assay: In vitro sortase kinetics HPLC assay, LAETG substrate
# Protocol: as §1, §2, §3
# [4] = Example 5 variants, read-out: Avg KM
# [5] = 1 mM 4S (LPESG) substrate, GGG varied
# [6] = 1 mM 4S (LPESG) substrate, read-out: Km, GGG
# [7] = Example 5 variants, substrate 4S (LPESG)
# [8] = Example 5 variants, substrate 4S (LPESG), read-out: Avg KM
# [9] = substrate 4S (LPESG), GGG varied
# [10] = substrate 4S (LPESG), read-out: Km, LxExG
# [11] = GGG varied, substrate 2A (LAETG)
# [12] = GGG varied, substrate 4S (LPESG)
Molecule,Avg kcat (Hz) ([1]; Example 5 variants),"Km [1, 4] [µM]","kcat, 10 mM GGG (Hz) [1] [Hz]","Km ([1]; read-out: Km, LxExG) [µM]",Khydrolysis ([2]; 1 mM 4S (LPESG) substrate) [µM],"kcat, 1 mM LxExG (Hz) [2, 5] [Hz]","Km [2, 6] [µM]","Avg kcat (Hz) [2, 7] [Hz]","Km [2, 8] [µM]",Specificity [2],"specificity (relative cat. Efficiency, fold) [2] [fold]",kL/KL/KH ([2]; substrate 4S (LPESG)),"kHydrolysis (Hz) [2, 9] [Hz]","kcat, 10 mM GGG (Hz) ([2]; substrate 4S (LPESG))","Km [2, 10] [µM]",also measured
B1,0.00606,11.7,0.006149,12.2,190.8,1.342,26700,0.3877,76,9.672,9.999,2.69E+07,0.009551,0.3877,76,"increase in kcat/Km for LPESG as compared to LPETG ([2]; FIG. 2): ~2 fold; increased affinity (KM) for the LPESG substrate as compared to the LPETG substrate ([2]; FIG. 2): ~8 fold; KH (KH,LPESG) [2]: 190 ± 16 µM"
B2,0.1073,491,0.09571,339,–,–,–,0.7574,1560,2.224,1.823,–,–,0.7269,1410,preference for LPESG over LPETG [2]: 2 fold
B3,0.1622,3400,–,–,–,–,–,–,–,–,–,–,–,–,–,"Avg kcat (Hz) ([3]; Example 5 variants, substrate 2A (LAETG)): 2.579 Hz; Km ([3]; Example 5 variants, substrate 2A (LAETG), read-out: Avg KM): 665 µM; KH ([3]; GGG concentration at which hydrolysis and transpeptidation rates are equal, 2A (LAETG) variant): 149 ± 63 µM; Avg kHydro (Hz) [3, 11]: 0.2347 Hz; Avg kcat (Hz) [3, 11]: 1.734 Hz; Km ([3]; KM for GGG, substrate 2A (LAETG), read-out: Avg KM): 1110 µM; Specificity (relative catalytic efficiency, fold) ([3]; ratio of kcat/KM between 2A (LAETG) and wt (LPETG)): 82.4 fold; Avg KH ([3]; substrate 2A (LAETG)): 148.9406 µM"
B4,0.007565,3390,–,–,–,–,–,2.543,3330,244.976,–,–,–,–,–,"preference for LPESG over LPETG [2]: 245 fold; reduced catalytic efficiency ([2]; round 3 clone, LPESG target): > 10 fold"
B5,–,–,0.003663,16.1,334.1,1.502,36000,–,–,–,18.52,1.30E+07,0.01399,0.6657,156,–
B6,–,–,0.1572,3290,–,–,–,–,–,–,–,–,–,–,–,"Khydrolysis ([3]; 1 mM 2A (LAETG) substrate): 135.8 µM; kcat, 1 mM LxExG (Hz) ([3]; 1 mM 2A (LAETG) substrate, GGG varied): 1.714 Hz; Km ([3]; 1 mM 2A (LAETG) substrate, read-out: Km, GGG): 1040 µM; specificity (relative cat. Efficiency, fold) ([3]; ratio of kcat/Km between 2A (LAETG) and wt (LPETG) substrates, favoured over disfavoured): 86.36 fold; kL/KL/KH ([3]; substrate 2A (LAETG)): 3.04E+07; kHydrolysis (Hz) ([3]; substrate 2A (LAETG), 1 mM, GGG varied): 0.2252 Hz; kcat, 10 mM GGG (Hz) ([3]; substrate 2A (LAETG), 10 mM GGG): 2.47 Hz; Km ([3]; substrate 2A (LAETG), read-out: Km, LxExG): 608 µM"
B7,0.9657,1040,–,–,–,–,–,0.9425,125,8.094,–,–,–,–,–,"Avg kHydro (Hz) [2, 12]: 0.01782 Hz; Avg kcat (Hz) [2, 12]: 2.004 Hz; Km ([2]; KM for GGG, substrate 4S (LPESG), read-out: Avg KM): 13100 µM; KH (KH,LPESG) [2]: 116 ± 10 µM; Avg KH ([2]; substrate 4S (LPESG)): 116.3542 µM"
B8,5.482,39300,–,–,–,–,–,5.779,38800,1.454,–,–,–,1.118,7310,"lower activity than that of eSrtA on its native LPETG substrate ([2]; minimal mutant, LPETG and LPESG processed): ~100 fold"
B9,–,–,1.081,238,122.3,2.132,15700,–,–,–,0.9102,3.38E+07,0.0167,1.242,312,increased affinity (KM) for the LPESG substrate as compared to the LPETG substrate ([2]; FIG. 2): ~2 fold
